Results from article PMC5705538 (Journal of molecular biology, 2017).
Where “and” joins values, the source holds several entries; their conditions need not be identical. Equal values may be shown once.

Assays:
SEC-MALS = target: the molecule itself; assay: SEC-MALS
M1-linked di-ubiquitin = M1-linked di-ubiquitin (UniProt P0CG48 1-76; P0CG48 1-76); assay: SEC

binding result (M1-linked di-ubiquitin) | Binder | stoichiometry N (SEC-MALS)
– | NEMO (112–350) (domain or fragment, human, UniProt Q9Y6K9 112-350, looked up) LDLKRQKEQALREVEHLKRCQQQMAEDKASVKAQVTSLLGELQESQSRLEAATKECQALEGRARAASEQARQLESEREALQQQHSVQVDQLRMQGQSVEAALRMERQAASEEKRKLAQLQVAYHQLFQEYDNHIKSSVVGSERKRGMQLEDLKQQLQQAEEALVAKQEVIDKLKEEAEQHKIVMETVPVLKAQADIYKADFQAERQAREKLAEKKELLQEQLEQLQREYSKLKASCQES | 2
binds | NEMO UBAN-ZF (246–419) (domain or fragment, human, UniProt Q9Y6K9 246-419, looked up) KSSVVGSERKRGMQLEDLKQQLQQAEEALVAKQEVIDKLKEEAEQHKIVMETVPVLKAQADIYKADFQAERQAREKLAEKKELLQEQLEQLQREYSKLKASCQESARIEDMRKRHVEVSQAPLPPAPAYLSSPLALPSQRRSPPEEPPDFCCPKCQYQAPDMDTLQIHVMECIE | –
binds | NEMO (150–350) (domain or fragment, human, UniProt Q9Y6K9 150-350, looked up) LGELQESQSRLEAATKECQALEGRARAASEQARQLESEREALQQQHSVQVDQLRMQGQSVEAALRMERQAASEEKRKLAQLQVAYHQLFQEYDNHIKSSVVGSERKRGMQLEDLKQQLQQAEEALVAKQEVIDKLKEEAEQHKIVMETVPVLKAQADIYKADFQAERQAREKLAEKKELLQEQLEQLQREYSKLKASCQES | 2 and 4
binds | NEMO UBAN (192–350) (domain or fragment, human, UniProt Q9Y6K9 192-350, looked up) QQQHSVQVDQLRMQGQSVEAALRMERQAASEEKRKLAQLQVAYHQLFQEYDNHIKSSVVGSERKRGMQLEDLKQQLQQAEEALVAKQEVIDKLKEEAEQHKIVMETVPVLKAQADIYKADFQAERQAREKLAEKKELLQEQLEQLQREYSKLKASCQES | –
